Reference: the supplement of paper PMC9233669
Fewer inactive variants are shown than the library holds.

Legend:
biotinyl-Phe-oxazolone = assay: self-aminoacylation, catalytic enhancement (BFO) (fold over background); higher = more active; k-Seq, kA / k0A0; sequences stand for … in GGGAAUGGAUCCACAUCUACGAAUUC…UUCACUGCAGACUUGACGAAGCUG
Procedure, shortened: (§1)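 Mutagenized RNA pools with a 21-nt variable region (0.43 μM) reacted with each biotinyl-aminoacyl-oxazolone at 2–1250 μM. Reactions ran in 50 μL HEPES/NaCl/KCl/MgCl2/CaCl2 buffer with 5% acetonitrile, pH 6.9–7.0, for 90 minutes at room temperature. Streptavidin-captured RNA was quantified by triplicate qPCR and Illumina sequencing, and per-sequence fraction reacted was fit to a pseudo-first-order model with 1000 bootstraps. Catalytic enhancement is median kA divided by the uncatalyzed rate, the low-activity peak of a bimodal Gaussian fit.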

biotinyl-Trp-oxazolone = assay: self-aminoacylation, catalytic enhancement (BWO) (fold over background); higher = more active; k-Seq, kA / k0A0; sequences stand for … in GGGAAUGGAUCCACAUCUACGAAUUC…UUCACUGCAGACUUGACGAAGCUG
Procedure, shortened: as §1

biotinyl-Ile-oxazolone = assay: self-aminoacylation, catalytic enhancement (BIO) (fold over background); higher = more active; k-Seq, kA / k0A0; sequences stand for … in GGGAAUGGAUCCACAUCUACGAAUUC…UUCACUGCAGACUUGACGAAGCUG
Procedure, shortened: as §1

biotinyl-Leu-oxazolone = assay: self-aminoacylation, catalytic enhancement (BLO) (fold over background); higher = more active; k-Seq, kA / k0A0; sequences stand for … in GGGAAUGGAUCCACAUCUACGAAUUC…UUCACUGCAGACUUGACGAAGCUG
Procedure, shortened: as §1

biotinyl-Met-oxazolone = assay: self-aminoacylation, catalytic enhancement (BMO) (fold over background); higher = more active; k-Seq, kA / k0A0; sequences stand for … in GGGAAUGGAUCCACAUCUACGAAUUC…UUCACUGCAGACUUGACGAAGCUG
Procedure, shortened: as §1

biotinyl-Val-oxazolone = assay: self-aminoacylation, catalytic enhancement (BVO) (fold over background); higher = more active; k-Seq, kA / k0A0; sequences stand for … in GGGAAUGGAUCCACAUCUACGAAUUC…UUCACUGCAGACUUGACGAAGCUG
Procedure, shortened: as §1

| Sequence | self-aminoacylation (biotinyl-Phe-oxazolone) | self-aminoacylation (biotinyl-Trp-oxazolone) | self-aminoacylation (biotinyl-Ile-oxazolone) | self-aminoacylation (biotinyl-Leu-oxazolone) | self-aminoacylation (biotinyl-Met-oxazolone) | self-aminoacylation (biotinyl-Val-oxazolone) |
| --- | --- | --- | --- | --- | --- | --- |
| AAGUUUGCUAUUAGUCGUAAG [Fam3.1 aminoacylation ribozyme variant] | 0.987 | 1.13 | 0.868 | 0.851 | 0.884 | 0.923 |
| AAGUUUGCUCAUAGGCGCAAG [Fam3.1 aminoacylation ribozyme variant] | 0.996 | 0.876 | 0.735 | 0.577 | 0.839 | 0.852 |
| AAGUUUGCUCAUAGUGGCAAG [Fam3.1 aminoacylation ribozyme variant] | 1.2 | 0.785 | 0.71 | 0.526 | 0.618 | 0.774 |
| AAGUUUGCUGAGAGUCGCAAG [Fam3.1 aminoacylation ribozyme variant] | 1.91 | 1.18 | 0.969 | 1.03 | 1.01 | 0.873 |
| AAGUUUGCUGAUAAUCGCAAG [Fam3.1 aminoacylation ribozyme variant] | 1.05 | 0.682 | 0.707 | 0.586 | 0.716 | 0.754 |
| AAGUUUGCUGAUAGUCGCAAA [Fam3.1 aminoacylation ribozyme variant] | 3.33 | 1.19 | 1.71 | 1.6 | 1.38 | 1.55 |
| AAGUUUGCUGAUAGUCGCGAG [Fam3.1 aminoacylation ribozyme variant] | 6.95 | 1.81 | 1.75 | 2.43 | 1.72 | 1.61 |
| AAGUUUGCUGAUAGUCGCUAG [Fam3.1 aminoacylation ribozyme variant] | 1.86 | 1.11 | 1.14 | 1.08 | 1.31 | 1.26 |
| AAGUUUGCUGCUAGUCGCAAG [Fam3.1 aminoacylation ribozyme variant] | 2.64 | 1.19 | 1.21 | 1.3 | 1.57 | 1.31 |
| AAGUUUGCUGUUAGUCGCAAG [Fam3.1 aminoacylation ribozyme variant] | 0.937 | 1.37 | 0.911 | 0.912 | 0.895 | 0.855 |
| AAGUUUGCUUAUACUCGCAAG [Fam3.1 aminoacylation ribozyme variant] | 0.761 | 0.554 | 0.779 | 0.66 | 0.863 | 0.814 |
| AAGUUUGCUUAUAGACGCAAG [Fam3.1 aminoacylation ribozyme variant] | 0.84 | 0.629 | 0.591 | 0.495 | 0.559 | 0.585 |
| AAGUUUGCUUAUAGUAGCAAG [Fam3.1 aminoacylation ribozyme variant] | 1.56 | 0.878 | 1.04 | 1.08 | 1.06 | 1.12 |
| AAGUUUGCUUAUAGUCGCAAG [Fam3.1 aminoacylation ribozyme variant] | 1.13 | 0.847 | 0.849 | 0.768 | 0.801 | 0.862 |
| AAGUUUGCUUAUAGUCGCAAU [Fam3.1 aminoacylation ribozyme variant] | 1.74 | 1.03 | 1.1 | 1.27 | 1.41 | 1.22 |
| AAGUUUGCUUAUUGUCGCAAG [Fam3.1 aminoacylation ribozyme variant] | 0.903 | 0.97 | 0.771 | 0.686 | 0.641 | 0.713 |
| AAGUUUGGUAACAGUCGCAAG [Fam3.1 aminoacylation ribozyme variant] | 1.24 | 0.693 | 1.07 | 0.857 | 0.994 | 0.987 |
| AAGUUUGGUAAUAGCCGCAAG [Fam3.1 aminoacylation ribozyme variant] | 1.19 | 1.42 | 1.27 | 1.15 | 1.39 | 1.01 |
| AAGUUUGGUAAUAGUCGCAAU [Fam3.1 aminoacylation ribozyme variant] | 3.13 | 2.14 | 2.02 | 1.8 | 1.65 | 1.62 |
| AAGUUUGGUAAUCGUCGCAAG [Fam3.1 aminoacylation ribozyme variant] | 1.07 | 1.52 | 1.39 | 1.33 | 1.49 | 1.32 |
| AAGUUUGGUAUUAGUCGCAAG [Fam3.1 aminoacylation ribozyme variant] | 2.44 | 1.74 | 1.65 | 1.5 | 1.51 | 1.47 |
| AAGUUUGUUAACAGUCGCAAG [Fam3.1 aminoacylation ribozyme variant] | 1.11 | 0.988 | 1.09 | 1.03 | 0.806 | 0.996 |
